From US11944637B2, “Biomaterials comprising hyaluronic acid binding peptides and extracellular matrix binding peptides for hyaluronic acid retention and tissue engineering applications” (THE JOHNS HOPKINS UNIVERSITY, priority 2013, dated 2024)
No end group written: not given here.

Experiments:
[1] = molecular target: collagen I (Homo sapiens, UniProt P02452+P08123); assay: Binding of collagen binding peptides conjugated to PEG-fluorescein on a thin coating of collagen I on TCP (fluorescence); conditions: for Normalized fluorescence intensity on collagen I coating: after washing, FIG. 2D, 2K; for Fluorescence intensity, binding on collagen I coating: compared to control and scrambled peptide, FIG. 2C, 2J
Description: (§1) FIGS. 2A-2K depict the clinically-relevant, non-covalent strategy, for one-step application of HA binding polymer system on tissue surface of the present invention. 2A, The first step in this strategy for coating a tissue surface is the reaction of a maleimide-PEG-NHS crosslinker with primary amines of the HA-binding peptide. Subsequently, peptides that non-covalently bind to ECM components, such as collagen I and collagen II, also having a thiol end group, is reacted to the maleimide. Finally, this polymer-peptide system of the present invention is mixed with an HA solution that binds to the peptide-polymer system, which on a single application makes a biomaterial-HA coating on the tissue surface. The binding of the collagen binding peptides were analyzed on thin coatings of collagen I and II on polystyrene tissue culture plates. A thin coating of collagen I on TCP with: 2B, i) No peptide, only PEG-fluorescein as a control, ii) scrambled collagen I binding peptide conjugated to PEG-fluorescein, iii) collagen I binding peptide conjugated to PEG-fluorescein, iv) scrambled collagen II binding peptide conjugated to PEG-fluorescein, v) collagen II binding peptide conjugated to PEG-fluorescein. […] A thin coating of collagen II on TCP with: 2G, i) No peptide, only PEG-fluorescein as a control, ii) scrambled collagen I binding peptide conjugated to PEG-fluorescein, iii) collagen I binding peptide conjugated to PEG-fluorescein, iv) scrambled collagen II binding peptide conjugated to PEG-fluorescein, v) collagen II binding peptide conjugated to PEG-fluorescein.
(§2) Second, a clinically relevant one-step injection/coating technology of the present invention was developed based on non-covalent binding of the HABpeptide-polymer system. Tissue surfaces, including, for example, articular cartilage, conjunctiva and sclera of an eye, are collagen I and II enriched, and can act as stable anchoring sites for the ECM binding peptides (ECMBPep). The HA-binding peptide that is linked to the ECMBPep through the PEG spacer can recapture HA that is lost through a physical or biological mechanism and can dynamically bind and concentrate HA where it is needed. Specifically, amine functionality of Col I and II ECMBPep were reacted with NHS-PEG-MAL followed by conjugation of C-HABPep to the Maleimide end groups. The resultant biomaterial composition of the present invention is mixed with HA and applied to tissue surfaces in a single step (FIG. 2A).

[2] = molecular target: collagen II (Homo sapiens, UniProt P02458); assay: Binding of collagen binding peptides conjugated to PEG-fluorescein on a thin coating of collagen II on TCP (fluorescence); conditions: for Normalized fluorescence intensity on collagen II coating: after washing, FIG. 2F, 2I; for Fluorescence intensity, binding on collagen II coating: compared to control and scrambled peptide, FIG. 2E, 2H
Description: as §1, §2

[3] = tested on: articular cartilage; assay: Visualization of the HA-bound layer with biotinylated HA on cartilage covalently modified with HABPep; assay type: binding, bovine; conditions: after washing, compared to unmodified cartilage incubated with HA-biotin alone
Experimental: C-HABPep was conjugated to articular cartilage through a heterobifunctional poly(ethylene glycol) (PEG) spacer. Maleimide-PEG-N-hydroxysuccinimide (MAL-PEG-NHS, 3.5 kDa, Jenkem Technologies), which has functionalities that are thiol- and amine-reactive, was dissolved to 5 mM in 50 mM sodium bicarbonate, pH 7.5 and added to the articular surface. The NHS groups were allowed to react with endogenous amines on the cartilage surface for 30 minutes. PEGylation was confirmed by attenuated total reflectance Fourier transform IR spectroscopy (ATR-FTIR; Bruker Vector 22 with a Pike Miracle ATR attachment). Following thorough washes in buffer to remove unreacted crosslinker, a 1.5 mM solution of C-HABPep was added to the surface to react with maleimide groups for an additional 30 minutes. Surfaces were carefully washed to remove unreacted peptide, yielding a cartilage surface with covalently attached HA-binding functionality. Visualization of the HA-bound layer. Cartilage was conjugated with C-HABPep and incubated with biotinylated HA synthesized as previously described. Briefly, HA (975 kDa) was dissolved in 50 mM boric acid, pH 5.2 at 2 mg/ml. This was combined with biotin hydrazide (Sigma) in a 20:1 weight ratio. […] The reaction was allowed to proceed at room temperature for 16 hours, after which it was dialyzed to remove unreacted biotin hydrazide and EDC. […]

[4] = tested on: normal human articular cartilage; assay: Lubrication testing (cartilage-on-cartilage friction), normal cartilage
Experimental: (§3) Cartilage sample preparation for lubrication testing. Cartilage samples were prepared for lubrication testing as a modification on previously published protocols (Arthritis and rheumatism 56, 882-891, (2007); Arthritis and rheumatism 50, 516-525, (2004)). Both normal and osteoarthritis tissue samples were ordered through (NDRI, Philadelphia, PA). Tissue samples were received within 24 hours post-mortem or surgery. Normal and diseased samples were received in a sterile container containing Dulbecco's Modified Eagle Medium (DMEM), and protease inhibitor cocktail. Biopsy punches were used to isolate cylindrical disks (radius=6 mm) and annuli (outer radius=4 mm, inner radius=1.5 mm) with small holes punctured through the cylinder walls to improve fluid depressurization. Due to the 24-hour time point in media washing for 24-hours to eliminate any lubricin, HA, and SAPLs; instead samples were washed for 4-6 hours in PBS on a shaker. HA sample groups were always incubated in HA solution (5 mg/mL) for 24-hours post-washing (FIGS. 4b,c). It should be noted that human cartilage was scarce especially in OA samples received.
In later experiments, covalent modification of cartilage surface by HABpep (FIG. 1) was performed on bovine articular cartilage samples. All non-covalent HABpep modification and in vitro lubrication studies were performed using human articular cartilage samples (FIG. 3). Normal human tissue was isolated from cadavers […]. Human OA cartilage samples were isolated from the patients with ages, 58 (F), 60 (F), 61 (M), 65 (M), 69 (M), 71 (F), who underwent total knee arthroplasty. Care was taken to avoid damaging the articular surface during dissection. Samples (outer diameter=8.0 mm, inner diameter=3.0 mm) were microtomed and evenly cut to obtain a flat surface. The superficial layer was maintained intact and only the deep layer of cartilage was cut to obtain a flat layer to glue to the metal counter-surface while friction measurements. Cartilage was used fresh without freezing or the addition of protease inhibitors so as not to change the surface lubrication properties. Samples were washed vigorously in PBS overnight to deplete the cartilage surface of any residual synovial fluid, after which they were functionalized with an HA-binding layer as needed and incubated at 4° C. for about 24 hours in the test lubricant. […]
(§4) Lubrication testing. […] The samples were bathed in the test lubricant, measured with digital calipers, compressed to 82% of their original combined height, and preconditioned by rotating 2 revolutions in each direction at an effective sliding velocity of 3 mm/s, which is defined as the angular velocity times the effective radius of the annulus Reff=2/3[(Ro3−Ri3)/(Ro2−Ri2)]=2.94 mm. […]

[5] = tested on: human OA cartilage (severely damaged, OA stage 3-4); assay: Lubrication testing (cartilage-on-cartilage friction), OA cartilage
Experimental: as §3, with “HA sample groups were always incubated in HA solution (5 mg/mL) for 24-hours post-washing (FIGS. 4b,c). It should be noted that human cartilage was scarce especially in OA samples received.” left out
as §4

[6] = normal cartilage without coating, tested in HA bath
[7] = normal cartilage, HA bath compared to PBS bath

Sequence of collagen II (P02458 182-1241 limits assumed): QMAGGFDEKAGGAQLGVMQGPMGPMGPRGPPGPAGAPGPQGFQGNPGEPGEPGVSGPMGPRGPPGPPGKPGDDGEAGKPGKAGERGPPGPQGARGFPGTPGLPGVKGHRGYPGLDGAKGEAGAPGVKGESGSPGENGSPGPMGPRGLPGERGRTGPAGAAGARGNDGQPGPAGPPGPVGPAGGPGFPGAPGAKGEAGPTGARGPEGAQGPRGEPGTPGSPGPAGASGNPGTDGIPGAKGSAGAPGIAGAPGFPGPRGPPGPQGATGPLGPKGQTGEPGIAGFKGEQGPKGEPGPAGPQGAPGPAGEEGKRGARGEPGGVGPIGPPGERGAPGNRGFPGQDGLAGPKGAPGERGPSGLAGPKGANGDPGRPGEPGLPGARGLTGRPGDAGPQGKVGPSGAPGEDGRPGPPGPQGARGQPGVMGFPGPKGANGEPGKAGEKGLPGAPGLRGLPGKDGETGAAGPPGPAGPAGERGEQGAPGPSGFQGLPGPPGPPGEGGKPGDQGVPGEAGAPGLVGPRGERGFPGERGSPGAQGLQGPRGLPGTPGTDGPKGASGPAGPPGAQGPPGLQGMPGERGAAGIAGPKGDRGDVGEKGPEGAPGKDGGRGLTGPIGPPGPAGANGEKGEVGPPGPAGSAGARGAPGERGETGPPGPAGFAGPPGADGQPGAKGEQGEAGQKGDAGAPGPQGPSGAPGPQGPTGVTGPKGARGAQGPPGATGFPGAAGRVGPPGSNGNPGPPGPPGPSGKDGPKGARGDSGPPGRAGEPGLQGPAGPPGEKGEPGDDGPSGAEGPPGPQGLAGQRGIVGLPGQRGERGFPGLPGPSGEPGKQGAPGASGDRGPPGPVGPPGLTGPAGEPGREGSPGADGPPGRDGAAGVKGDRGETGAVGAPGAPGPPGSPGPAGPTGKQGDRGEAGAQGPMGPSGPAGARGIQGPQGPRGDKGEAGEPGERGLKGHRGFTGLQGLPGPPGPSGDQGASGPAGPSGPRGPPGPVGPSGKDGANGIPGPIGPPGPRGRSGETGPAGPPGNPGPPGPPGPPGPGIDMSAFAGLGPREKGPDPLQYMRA
Sequence of collagen I (P02452 162-1218 limits assumed): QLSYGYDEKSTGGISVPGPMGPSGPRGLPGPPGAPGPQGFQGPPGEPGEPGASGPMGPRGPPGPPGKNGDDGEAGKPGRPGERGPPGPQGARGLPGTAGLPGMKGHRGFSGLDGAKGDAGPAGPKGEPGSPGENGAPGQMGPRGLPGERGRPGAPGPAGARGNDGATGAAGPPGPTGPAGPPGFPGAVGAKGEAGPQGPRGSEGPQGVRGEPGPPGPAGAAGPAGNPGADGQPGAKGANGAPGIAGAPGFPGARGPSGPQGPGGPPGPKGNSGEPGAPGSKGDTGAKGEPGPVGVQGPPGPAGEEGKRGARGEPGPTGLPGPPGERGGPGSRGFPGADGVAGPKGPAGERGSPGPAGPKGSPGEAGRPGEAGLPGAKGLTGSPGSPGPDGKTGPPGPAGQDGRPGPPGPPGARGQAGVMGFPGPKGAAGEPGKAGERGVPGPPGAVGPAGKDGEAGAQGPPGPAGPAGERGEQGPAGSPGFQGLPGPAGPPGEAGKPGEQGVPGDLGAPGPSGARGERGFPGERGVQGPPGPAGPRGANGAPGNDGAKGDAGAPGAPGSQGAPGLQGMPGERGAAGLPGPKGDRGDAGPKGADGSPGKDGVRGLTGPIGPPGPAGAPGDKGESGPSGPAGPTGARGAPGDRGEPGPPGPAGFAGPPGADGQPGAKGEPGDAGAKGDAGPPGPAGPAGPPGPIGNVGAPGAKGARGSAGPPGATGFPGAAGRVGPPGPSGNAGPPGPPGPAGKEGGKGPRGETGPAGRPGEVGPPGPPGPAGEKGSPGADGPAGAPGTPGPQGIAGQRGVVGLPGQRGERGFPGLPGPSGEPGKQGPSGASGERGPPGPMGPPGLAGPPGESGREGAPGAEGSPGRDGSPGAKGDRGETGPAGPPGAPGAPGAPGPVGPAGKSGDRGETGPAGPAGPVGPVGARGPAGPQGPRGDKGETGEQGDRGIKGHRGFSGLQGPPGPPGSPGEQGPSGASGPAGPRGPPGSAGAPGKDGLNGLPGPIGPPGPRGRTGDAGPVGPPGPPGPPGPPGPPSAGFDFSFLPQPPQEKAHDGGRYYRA
Sequence of collagen I (P08123 80-1119 limits assumed): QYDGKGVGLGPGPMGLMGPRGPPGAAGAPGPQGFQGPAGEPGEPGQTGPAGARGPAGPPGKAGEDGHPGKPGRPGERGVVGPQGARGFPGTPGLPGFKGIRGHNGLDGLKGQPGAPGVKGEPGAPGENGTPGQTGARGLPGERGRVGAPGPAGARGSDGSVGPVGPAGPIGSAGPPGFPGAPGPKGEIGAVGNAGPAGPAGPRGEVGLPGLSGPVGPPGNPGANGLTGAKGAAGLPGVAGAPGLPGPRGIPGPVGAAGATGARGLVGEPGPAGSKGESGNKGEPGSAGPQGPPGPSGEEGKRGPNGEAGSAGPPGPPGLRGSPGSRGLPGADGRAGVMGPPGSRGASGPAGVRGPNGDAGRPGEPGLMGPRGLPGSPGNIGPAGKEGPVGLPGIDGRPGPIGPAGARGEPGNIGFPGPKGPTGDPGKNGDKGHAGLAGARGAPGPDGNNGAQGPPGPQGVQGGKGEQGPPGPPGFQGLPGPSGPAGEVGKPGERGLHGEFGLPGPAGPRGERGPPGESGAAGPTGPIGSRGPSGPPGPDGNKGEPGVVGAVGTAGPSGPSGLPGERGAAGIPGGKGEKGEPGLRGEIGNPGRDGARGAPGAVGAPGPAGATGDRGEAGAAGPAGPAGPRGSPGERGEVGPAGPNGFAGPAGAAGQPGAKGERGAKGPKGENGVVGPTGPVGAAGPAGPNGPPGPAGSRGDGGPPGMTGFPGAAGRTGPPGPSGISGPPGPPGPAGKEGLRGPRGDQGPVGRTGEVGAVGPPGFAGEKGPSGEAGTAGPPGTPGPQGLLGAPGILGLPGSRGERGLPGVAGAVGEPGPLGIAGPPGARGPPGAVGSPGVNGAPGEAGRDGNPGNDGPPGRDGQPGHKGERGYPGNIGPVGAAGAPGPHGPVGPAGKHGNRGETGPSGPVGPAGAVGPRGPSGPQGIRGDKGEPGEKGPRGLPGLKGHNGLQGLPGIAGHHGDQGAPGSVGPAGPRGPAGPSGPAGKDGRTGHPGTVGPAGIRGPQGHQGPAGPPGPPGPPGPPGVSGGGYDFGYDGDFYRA

Substance: WYRGRL (SEQ ID NO: 4) (also: PEG-fluorescein conjugate; listed as Homo sapiens) [collagen II binding peptide, ECMBPep for collagen II; tested conjugated to PEG-fluorescein]
- Normalized fluorescence intensity on collagen I coating [1]: did not bind
- Fluorescence intensity, binding on collagen I coating [1]: no significant binding
- Normalized fluorescence intensity on collagen II coating [2]: 1.65 times to that of scrambled peptide
- Fluorescence intensity, binding on collagen II coating [2]: significant binding

Substance: CRRDDGAHWQFNALTVR (SEQ ID NO: 2) (thiol; MAL-PEG-NHS conjugated to cartilage; listed as Homo sapiens) [HA-binding polymer coating]
- Staining of bound biotinylated HA (streptavidin, horseradish peroxidase) [3]: stained darker
- Staining of bound biotinylated HA (streptavidin, horseradish peroxidase) ([3]; listed as C-HABPep): greater intensity of staining

Substance: YSFYSDESLQ (SEQ ID NO: 3) (also: PEG-fluorescein conjugate; listed as Homo sapiens) [collagen I binding peptide, ECMBPep for collagen I; tested conjugated to PEG-fluorescein]
- Normalized fluorescence intensity on collagen I coating [1]: 1.55 times to that of scrambled peptide
- Fluorescence intensity, binding on collagen I coating [1]: significant binding
- Normalized fluorescence intensity on collagen II coating [2]: did not bind
- Fluorescence intensity, binding on collagen II coating [2]: no significant binding

Substance: hyaluronic acid [HA]
- <μk> kinetic friction [4, 6]: 0.008
- <μs> static friction [4, 6]: 0.018
- decrease of kinetic total friction value [4, 7]: 72%
- decrease of static total friction value [4, 7]: 35%
- static lubricity value (<μ> in PBS-<μ> in HA), most severely damaged OA samples vs normal cartilage ([5]; FIG. 4w): approximately 5 times
- kinetic lubricity value (<μ> in PBS-<μ> in HA), most severely damaged OA samples vs normal cartilage ([5]; FIG. 4x): approximately 5 times
